From IntAct's records for PubMed 19858347

B1: Killer cell immunoglobulin-like receptor 2DL1 (Homo sapiens), P43626 (parent)
chain: MSLLVVSMACVGFFLLQGAWPHEGVHRKPSLLAHPGRLVKSEETVILQCWSDVMFEHFLLHREGMFNDTLRLIGEHHDGVSKANFSISRMTQDLAGTYRCYGSVTHSPYQVSAPSDPLDIVIIGLYEKPSLSAQLGPTVLAGENVTLSCSSRSSYDMYHLSREGEAHERRLPAGPKVNGTFQADFPLGPATHGGTYRCFGSFHDSPYEWSKSSDPLLVSVTGNPSNSWPSPTEPSSKTGNPRHLHILIGTSVVIILFILLFFLLHRWCSNKKNAAVMDQESAGNRTANSEDSDEQDPQEVTYTQLNHCVFTQRKITRPSQRPKTPPTDIIVYTELPNAESRSKVVSCP
B2: Killer cell immunoglobulin-like receptor 2DS4 (Homo sapiens), P43632 (parent)
chain: MSLMVIIMACVGFFLLQGAWPQEGVHRKPSFLALPGHLVKSEETVILQCWSDVMFEHFLLHREGKFNNTLHLIGEHHDGVSKANFSIGPMMPVLAGTYRCYGSVPHSPYQLSAPSDPLDMVIIGLYEKPSLSAQPGPTVQAGENVTLSCSSRSSYDMYHLSREGEAHERRLPAVRSINGTFQADFPLGPATHGGTYRCFGSFRDAPYEWSNSSDPLLVSVTGNPSNSWPSPTEPSSKTGNPRHLHVLIGTSVVKIPFTILLFFLLHRWCSDKKNAAVMDQEPAGNRTVNSEDSDEQDHQEVSYA
B3: Killer cell immunoglobulin-like receptor 2DL3 (Homo sapiens), P43628 (parent)
chain: MSLMVVSMVCVGFFLLQGAWPHEGVHRKPSLLAHPGPLVKSEETVILQCWSDVRFQHFLLHREGKFKDTLHLIGEHHDGVSKANFSIGPMMQDLAGTYRCYGSVTHSPYQLSAPSDPLDIVITGLYEKPSLSAQPGPTVLAGESVTLSCSSRSSYDMYHLSREGEAHERRFSAGPKVNGTFQADFPLGPATHGGTYRCFGSFRDSPYEWSNSSDPLLVSVTGNPSNSWPSPTEPSSETGNPRHLHVLIGTSVVIILFILLLFFLLHRWCCNKKNAVVMDQEPAGNRTVNREDSDEQDPQEVTYAQLNHCVFTQRKITRPSQRPKTPPTDIIVYTELPNAEP

Variants of: B1
Conditions: with hlac_human HLA-C
Target sequence in this assay (P10321 whole entry): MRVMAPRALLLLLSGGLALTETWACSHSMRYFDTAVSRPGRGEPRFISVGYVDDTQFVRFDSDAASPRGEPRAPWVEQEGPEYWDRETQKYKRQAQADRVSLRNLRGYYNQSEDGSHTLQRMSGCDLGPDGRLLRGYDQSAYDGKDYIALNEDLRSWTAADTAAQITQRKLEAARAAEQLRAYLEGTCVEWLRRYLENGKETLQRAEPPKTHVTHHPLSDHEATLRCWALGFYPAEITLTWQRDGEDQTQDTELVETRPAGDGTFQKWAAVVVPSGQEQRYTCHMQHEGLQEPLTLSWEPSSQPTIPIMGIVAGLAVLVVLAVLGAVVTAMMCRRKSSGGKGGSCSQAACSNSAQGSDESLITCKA

effect of a mutation on the interaction	Variant
decreasing interaction strength	Q92P;D93V
increasing interaction strength	Q92P
decreasing interaction strength	T105P
decreasing interaction strength	Q92P;D93V;T105P

Variants of: B1
Conditions: with hlac_human HLA-C
Remark: another data set of the same source
Target sequence in this assay (P10321 whole entry): as above

effect of a mutation on the interaction	Variant
decreasing interaction strength	Q92P

Variants of: B2
Conditions: with hlac_human HLA-C
Target sequence in this assay (P10321 whole entry): as above

effect of a mutation on the interaction	Variant
with no effect	P92Q;V93D
disrupting interaction strength	K65M
with no effect	A205S

Variants of: B2
Conditions: with hlac_human HLA-C
Remark: another data set of the same source
Target sequence in this assay (P10321 whole entry): as above

effect of a mutation on the interaction	Variant
decreasing interaction strength	P92Q;V93D
decreasing interaction strength	K65M
decreasing interaction strength	A205S
decreasing interaction strength	I123T

Variants of: B2
Conditions: with hlac_human HLA-C
Remark: another data set of the same source
Target sequence in this assay (P10321 whole entry): as above

effect of a mutation on the interaction	Variant
increasing interaction strength	P92Q;V93D
causing an interaction	K65M

Variants of: B2
Conditions: with hlab_human HLA-B
Target sequence in this assay (P01889 whole entry): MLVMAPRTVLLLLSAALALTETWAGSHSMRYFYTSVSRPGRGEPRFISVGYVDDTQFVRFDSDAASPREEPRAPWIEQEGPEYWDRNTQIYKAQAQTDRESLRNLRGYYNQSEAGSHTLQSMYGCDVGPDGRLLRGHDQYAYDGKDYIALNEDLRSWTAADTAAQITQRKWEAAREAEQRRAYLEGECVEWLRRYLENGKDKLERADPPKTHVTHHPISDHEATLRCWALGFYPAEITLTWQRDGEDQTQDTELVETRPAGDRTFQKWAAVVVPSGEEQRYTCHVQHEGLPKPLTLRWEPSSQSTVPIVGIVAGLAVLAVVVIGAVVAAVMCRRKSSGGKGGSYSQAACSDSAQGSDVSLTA

effect of a mutation on the interaction	Variant
causing an interaction	P92Q;V93D
causing an interaction	A205S

Variants of: B2
Conditions: with hlac_human HLA-C
Remark: another data set of the same source
Target sequence in this assay (P10321 whole entry): as the sequence (P10321 whole entry) above

effect of a mutation on the interaction	Variant
causing an interaction	P92Q;V93D
causing an interaction	A205S

Variants of: B2
Conditions: with hlac_human HLA-C
Remark: another data set of the same source

effect of a mutation on the interaction	Variant
with no effect	K65M

Variants of: B3
Conditions: with hlac_human HLA-C

effect of a mutation on the interaction	Variant
decreasing interaction strength	Q92P;D93V
decreasing interaction strength	Q92P;D93V;T105P
increasing interaction strength	Q92P
decreasing interaction strength	T105P

Variants of: B3
Conditions: with hlac_human HLA-C
Remark: another data set of the same source

effect of a mutation on the interaction	Variant
disrupting interaction strength	Q92P;D93V
disrupting interaction strength	Q92P;D93V;T105P
disrupting interaction strength	T105P

Variants of: B3
Conditions: with hlab_human HLA-B
Target sequence in this assay (P01889 whole entry): as the sequence (P01889 whole entry) above

effect of a mutation on the interaction	Variant
decreasing interaction strength	Q92P
